Assay results reported in article PMC4529466, “Intradermal insulin infusion achieves faster insulin action than subcutaneous infusion for 3-day wear” (Drug Delivery and Translational Research, 2015).

Assay: VAS self-rated pain perception of bolus delivery and daily infusion
Type: in vivo, human (T1DM patients)
Conditions: ID compared to SC infusion
Procedure: Patients rated bolus-associated pain immediately after insulin delivery for both meals and again each evening at approximately 6 PM after completion of the morning dosing and sampling cycles to rate overall discomfort from the infusion process during the preceding 24 h. The visual analog scale (VAS) utilized a standard validated 10-cm scale anchored by “no pain” (score 0) and “severe pain” (score 10) without inclusion of additional numerical or verbal descriptors to avoid clustering of scores around intermediate points. Scores were measured as absolute distant from origin. Within 1 h prior to device removal, patients completed a non-validated user acceptability questionnaire consisting of a set of standard multiple choice closed-ended questions covering acceptability of sensations for infusion sets application and operation, set satisfaction, willingness to use the respective infusion set again, and set preference. Responses were restricted to a 5-point scale generally ranging from extreme agreement/satisfaction to extreme disagreement/satisfaction depending upon the question. […]
Pharmacokinetic parameters were derived from baseline corrected blood insulin data. […] PK and PD endpoints were analyzed using a linear mixed effects model (ANOVA) with sequence, application route, meal, and day as factors along with interactions. […]

With insulin aspart the VAS self-rated pain was “statistically greater for ID compared to SC infusion”.
